Measurements from patent publication US20140087995A1 (published 2014).
Numbered stars: 1 amine (or outer) side, 2 acyl side, 3 side chain; on linkers, the order of the positions; unused ones are H or OH. Bridge positions count the residues as written; N and C are the ends. * marks the point of attachment. C20 diacid = O=C(O)CCCCCCCCCCCCCCCCCCC(=O)*; γGlu = O=C(O)[C@H](CCC(=O)[*:2])N[*:1]; AEEA = NCCOCCOCC(=O)O

T1: human amylin 3(a) receptor (human calcitonin receptor plus RAMP-3) (human, UniProt P30988 25-474; O60896 24-148, limits assumed)
T1 construct: whole, on cells; Whole cells in the luciferase assay (Assay II a); also called hAmylin-R; human amylin receptor
T1 sequence (looked up) 1: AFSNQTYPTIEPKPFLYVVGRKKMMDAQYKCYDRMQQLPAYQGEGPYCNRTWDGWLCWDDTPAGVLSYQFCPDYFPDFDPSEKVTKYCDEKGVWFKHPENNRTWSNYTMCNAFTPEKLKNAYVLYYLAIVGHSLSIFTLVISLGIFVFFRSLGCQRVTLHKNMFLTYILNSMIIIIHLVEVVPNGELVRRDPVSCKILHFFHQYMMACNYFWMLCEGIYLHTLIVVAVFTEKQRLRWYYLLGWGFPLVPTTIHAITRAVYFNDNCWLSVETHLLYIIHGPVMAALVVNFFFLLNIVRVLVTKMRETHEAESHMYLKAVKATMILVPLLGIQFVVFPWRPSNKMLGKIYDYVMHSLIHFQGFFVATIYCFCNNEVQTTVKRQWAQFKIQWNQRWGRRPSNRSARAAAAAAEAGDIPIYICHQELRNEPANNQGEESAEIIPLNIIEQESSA
T1 sequence (looked up) 2: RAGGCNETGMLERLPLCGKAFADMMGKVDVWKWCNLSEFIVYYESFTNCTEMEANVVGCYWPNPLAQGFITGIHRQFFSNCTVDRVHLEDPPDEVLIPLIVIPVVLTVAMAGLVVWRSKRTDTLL

T2: human calcitonin receptor (human, UniProt P30988 25-474)
T2 sequence (looked up): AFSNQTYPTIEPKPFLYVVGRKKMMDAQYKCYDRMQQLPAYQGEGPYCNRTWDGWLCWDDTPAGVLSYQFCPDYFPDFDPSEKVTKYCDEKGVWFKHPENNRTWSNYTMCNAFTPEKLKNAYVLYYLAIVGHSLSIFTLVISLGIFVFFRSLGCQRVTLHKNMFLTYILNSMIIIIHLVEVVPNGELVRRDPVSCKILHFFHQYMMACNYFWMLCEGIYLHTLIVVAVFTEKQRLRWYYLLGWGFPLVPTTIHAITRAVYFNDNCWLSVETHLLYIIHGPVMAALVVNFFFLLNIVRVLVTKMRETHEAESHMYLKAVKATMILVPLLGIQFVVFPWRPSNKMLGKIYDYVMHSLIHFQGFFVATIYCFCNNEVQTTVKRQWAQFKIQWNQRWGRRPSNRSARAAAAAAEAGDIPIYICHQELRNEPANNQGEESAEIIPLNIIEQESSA


What was measured:
[1] = molecular target: T1, human amylin 3(a) receptor (human …); assay: SPA competition binding, displacement of 125I-rat amylin from membranes of Amylin 3(a)/CRE-luc BHK cells (Assay V)
Description: The binding assay was performed using scintillation proximity assay (SPA) beads (RPNQ0001) from PerkinElmer and cell membranes from the Amylin 3(a)/CRE-luc cells (as described in Assay (II)) were used. Membranes were prepared in the following way; the cells were rinsed with PBS and incubated with Versene for approximately 5 min before harvesting. The cells were flushed with PBS and the cell-suspension was centrifuged for 5 min at 1000 rpm. Cells were homogenized (ultrathurrax) in a buffer containing 20 mM Na-HEPES and 10 mM EDTA (pH 7.4) and centrifuged at 20.000 rpm for 15 min. The resulting pellet was resuspended, homogenized and centrifuged (20.000 rpm, 15 min) in a buffer containing 20 mM Na-HEPES and 0.1 mM EDTA (pH 7.4, buffer 2). The resulting pellet was resuspended in buffer 2 and protein concentration was measured (BCA protein Assay, Pierce). The homogenate was kept cold during the whole procedure. The membranes were kept at −80° C. until use. The assay was performed in a 384 well Optiplate (PerkinElmer) in a total volume of 40 ul. Membranes were mixed with SPA beads. Final concentration of membranes 35 ng/μL final and SPA beads was 0.05 mg/well. Test-compounds were dissolved in DMSO and further diluted in assay buffer (50 mM Hepes, pH 7.4, 1 mM CaCl2, 5 mM MgCl₂, 0.1% OA and 0.02% Tween20). […] The final mixture was incubated with shaking at 400 rpm for 120 min at 25° C. prior to centrifugation (1500 rpm, 10 min). Samples were analyzed on TopCounter™ (Packard). The IC₅₀ was calculated using (one site binding competition analysis) GraphPad Prism5 as a measure of receptor affinity.

[2] = molecular target: T1, human amylin 3(a) receptor (human …); assay: cell-based or functional assay
[3] = molecular target: T2, human calcitonin receptor; assay: cell-based or functional assay

IC50 [1] [pM]	Ratio hCT/hAmylin funct. [2]	hAmylin-R funct. EC50 [2] [pM]	hCTR funct. EC50 [3] [pM]	Binder
217	3.6	80	285	{C20 diacid-γGlu-AEEA-AEEA}-KCNTATCATQRLAEFLRHSSPNFGAIPSSTNVGSNTP-NH2 (disulfide 2-7; SMILES CC[C@H](C)[C@H](NC(=O)[C@H](C)NC(=O)CNC(=O)[C@H](Cc1ccccc1)NC(=O)[C@H](CC(N)=O)NC(=O)[C@@H]1CCCN1C(=O)[C@H](CO)NC(=O)[C@H](CO)NC(=O)[C@H](Cc1c[nH]cn1)NC(=O)[C@H](CCCNC(=N)N)NC(=O)[C@H](CC(C)C)NC(=O)[C@H](Cc1ccccc1)NC(=O)[C@H](CCC(=O)O)NC(=O)[C@H](C)NC(=O)[C@H](CC(C)C)NC(=O)[C@H](CCCNC(=N)N)NC(=O)[C@H](CCC(N)=O)NC(=O)[C@@H](NC(=O)[C@H](C)NC(=O)[C@@H]1CSSC[C@H](NC(=O)[C@H](CCCCN)NC(=O)COCCOCCNC(=O)COCCOCCNC(=O)CC[C@H](NC(=O)CCCCCCCCCCCCCCCCCCC(=O)O)C(=O)O)C(=O)N[C@@H](CC(N)=O)C(=O)N[C@@H]([C@@H](C)O)C(=O)N[C@@H](C)C(=O)N[C@@H]([C@@H](C)O)C(=O)N1)[C@@H](C)O)C(=O)N1CCC[C@H]1C(=O)N[C@@H](CO)C(=O)N[C@@H](CO)C(=O)N[C@H](C(=O)N[C@@H](CC(N)=O)C(=O)N[C@H](C(=O)NCC(=O)N[C@@H](CO)C(=O)N[C@@H](CC(N)=O)C(=O)N[C@H](C(=O)N1CCC[C@H]1C(N)=O)[C@@H](C)O)C(C)C)[C@@H](C)O, also called compound 20)
321	1.2	60	70	{C20 diacid-γGlu}-KCNTATCATQRLAEFLRHSSPNFGPILPPTNVGSNTP-NH2 (disulfide 2-7; SMILES CC[C@H](C)[C@H](NC(=O)[C@@H]1CCCN1C(=O)CNC(=O)[C@H](Cc1ccccc1)NC(=O)[C@H](CC(N)=O)NC(=O)[C@@H]1CCCN1C(=O)[C@H](CO)NC(=O)[C@H](CO)NC(=O)[C@H](Cc1c[nH]cn1)NC(=O)[C@H](CCCNC(=N)N)NC(=O)[C@H](CC(C)C)NC(=O)[C@H](Cc1ccccc1)NC(=O)[C@H](CCC(=O)O)NC(=O)[C@H](C)NC(=O)[C@H](CC(C)C)NC(=O)[C@H](CCCNC(=N)N)NC(=O)[C@H](CCC(N)=O)NC(=O)[C@@H](NC(=O)[C@H](C)NC(=O)[C@@H]1CSSC[C@H](NC(=O)[C@H](CCCCN)NC(=O)CC[C@H](NC(=O)CCCCCCCCCCCCCCCCCCC(=O)O)C(=O)O)C(=O)N[C@@H](CC(N)=O)C(=O)N[C@@H]([C@@H](C)O)C(=O)N[C@@H](C)C(=O)N[C@@H]([C@@H](C)O)C(=O)N1)[C@@H](C)O)C(=O)N[C@@H](CC(C)C)C(=O)N1CCC[C@H]1C(=O)N1CCC[C@H]1C(=O)N[C@H](C(=O)N[C@@H](CC(N)=O)C(=O)N[C@H](C(=O)NCC(=O)N[C@@H](CO)C(=O)N[C@@H](CC(N)=O)C(=O)N[C@H](C(=O)N1CCC[C@H]1C(N)=O)[C@@H](C)O)C(C)C)[C@@H](C)O, also called compound 4)
996	5.7	128	729	{C20 diacid-γGlu}-KCNTATCATQRLAEFLRHSSPNFGPILPPTNVGSNTY-NH2 (disulfide 2-7; SMILES CC[C@H](C)[C@H](NC(=O)[C@@H]1CCCN1C(=O)CNC(=O)[C@H](Cc1ccccc1)NC(=O)[C@H](CC(N)=O)NC(=O)[C@@H]1CCCN1C(=O)[C@H](CO)NC(=O)[C@H](CO)NC(=O)[C@H](Cc1c[nH]cn1)NC(=O)[C@H](CCCNC(=N)N)NC(=O)[C@H](CC(C)C)NC(=O)[C@H](Cc1ccccc1)NC(=O)[C@H](CCC(=O)O)NC(=O)[C@H](C)NC(=O)[C@H](CC(C)C)NC(=O)[C@H](CCCNC(=N)N)NC(=O)[C@H](CCC(N)=O)NC(=O)[C@@H](NC(=O)[C@H](C)NC(=O)[C@@H]1CSSC[C@H](NC(=O)[C@H](CCCCN)NC(=O)CC[C@H](NC(=O)CCCCCCCCCCCCCCCCCCC(=O)O)C(=O)O)C(=O)N[C@@H](CC(N)=O)C(=O)N[C@@H]([C@@H](C)O)C(=O)N[C@@H](C)C(=O)N[C@@H]([C@@H](C)O)C(=O)N1)[C@@H](C)O)C(=O)N[C@@H](CC(C)C)C(=O)N1CCC[C@H]1C(=O)N1CCC[C@H]1C(=O)N[C@H](C(=O)N[C@@H](CC(N)=O)C(=O)N[C@H](C(=O)NCC(=O)N[C@@H](CO)C(=O)N[C@@H](CC(N)=O)C(=O)N[C@H](C(=O)N[C@@H](Cc1ccc(O)cc1)C(N)=O)[C@@H](C)O)C(C)C)[C@@H](C)O, also called compound 6)
